Results: article PMC3200309 (Cell, 2011)

Tests used:
[1] = target: scFv45 (conformation-sensor single chain variable fragment, purified from E. coli) (chicken); test: SPR
[2] = target: PTP1B-CASA mutant (C215A, S216A), PTP1B (1-321) (Homo sapiens, UniProt P18031, Cys215 to Ala | Ser216 to Ala); test: SPR

Binder	Kd [1] [nM]	koff [1] [s⁻¹]	Kd [2] [nM]
PTP1B-OX, PTP1B (1-321) reversibly oxidized with H2O2 (domain or fragment, active site Cys215 reversibly oxidized (cyclic sulfenyl-amide: S of Cys215 linked to the main-chain N of Ser216)) MEMEKEFEQIDKSGSWAAIYQDIRHEASDFPCRVAKLPKNKNRNRYRDVSPFDHSRIKLHQEDNDYINASLIKMEEAQRSYILTQGPLPNTCGHFWEMVWEQKSRGVVMLNRVMEKGSLKCAQYWPQKEEKEMIFEDTNLKLTLISEDIKSYYTVRQLELENLTTQETREILHFHYTTWPDFGVPESPASFLNFLFKVRESGSLSPEHGPVVVHCSAGIGRSGTFCLADTCLLLMDKRKDPSSVDIKKVLLEMRKFRMGLIQTADQLRFSYLAVIEGAKFIMGDSSVQDQWKELSHEDLEPPPEHIPPPPRPPKRILEPHN	46	0.0023	
scFv45 (conformation-sensor single chain variable fragment, purified from E. coli) (scFv, V domains shown) VH: TVTLDESGGGLQAPGGALSLVCKASGFTFSSYDMGWIRQAPGKGLEYVAGITDNGRYASYGSAVDGRATISRDNGQSSVRLQLNNLRAEDTGTYYCARDDGSGWTGNSIDAWGHGTEVIVSS VL: LTQPSSVSANPGGTVKITCSGSSSAYGYGWYQQKSPGSAPVTVIYNNNKRPSNIPSRFSGSKSGSTGTLTITGVQAEDEAVYFCGSEDSSTDAIFGAGTTLTVL			52
